Experimental data taken from patent publication US20190144565A1 (UCB, published 2019).

T1: sFcεRIα, the extracellular portion of the alpha chain of the human high affinity IgE receptor (human, UniProt P12319 26-205)
T1 construct: extracellular domain; also called sFcERIa; Alexa488 labelled sFcεRIα
T1 sequence (looked up): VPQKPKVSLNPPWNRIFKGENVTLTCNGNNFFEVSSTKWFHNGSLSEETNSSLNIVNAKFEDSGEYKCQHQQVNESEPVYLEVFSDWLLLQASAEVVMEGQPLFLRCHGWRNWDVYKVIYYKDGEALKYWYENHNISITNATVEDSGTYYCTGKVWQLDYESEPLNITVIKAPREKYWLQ

B1: sFcεRIα-IgG4-Fc fusion protein (α-γ) (Fc fusion, UniProt P12319 26-205, looked up)
chain: T1 sequence (looked up)
notes: extracellular domain; also called αγ-fusion protein; Alexa Fluor 647 labeled sFcεRIα-IgG4-Fc; not shown: IgG4 Fc
B2: IgE-Fc according to Seq. ID No. 108 (V224-K547) with the mutations N265Q & N371Q (other)
chain: VASRDFTPPTVKILQSSCDGGGHFPPTIQLLCLVSGYTPGTIQITWLEDGQVMDVDLSTASTTQEGELASTQSELTLSQKHWLSDRTYTCQVTYQGHTFEDSTKKCADSNPRGVSAYLSRPSPFDLFIRKSPTITCLVVDLAPSKGTVQLTWSRASGKPVNHSTRKEEKQRNGTLTVTSTLPVGTRDWIEGETYQCRVTHPHLPRALMRSTTKTSGPRAAPEVYAFATPEWPGSRDKRTLACLIQNFMPEDISVQWLHNEVQLPDARHSTTQPRKTKGSGFFVFSRLEVTRAEWEQKDEFICRAVHEAASPSQTVQRAVSVNPGK
notes: also called IgE-Fc (N265Q, N371Q); terbium labeled IgE-Fc

Tests used:
[1] = biological target: B2; assay: TR-FRET; labelled αγ-fusion protein titrated on labelled IgE-Fc, no omalizumab Fab3
[2] = biological target: T1, sFcεRIα, the extracellular portion of …; assay: SPR; IgE-Fc captured on immobilised sFcεRIα
[3] = biological target: B1; assay: TR-FRET; labelled αγ-fusion protein titrated on labelled IgE-Fc, no omalizumab Fab3

Row | EC50 (read off the curve) [1] | binding result [2] | binding result [3] | Binder
1 | ~1 nM |  |  | B1
2 |  | binds | binds | B2
